Read-outs that look alike come from different tables or passages of the source.
Key:
[1] = biological target: T1, BV2465 (recombinant CoV S glycoprotein, Delta) (SARS-CoV-2, UniProt P0DTC2 14-1273); assay: hACE2 receptor inhibition ELISA on coated rS; competitor hACE2-His
[2] = biological target: T2, BV2373 (recombinant CoV S glycoprotein, Prototype) (SARS-CoV-2, UniProt P0DTC2 14-1273); assay: as above
[3] = biological target: T3, BV2541 (recombinant CoV S glycoprotein, BA.4) (SARS-CoV-2, UniProt P0DTC2 14-1273); assay: as above
[4] = biological target: T3, BV2541 (recombinant CoV S glycoprotein, …); assay: ELISA on coated rS
[5] = biological target: Delta Plus CoV S glycoprotein (recombinant) (Severe acute respiratory syndrome …, UniProt P0DTC2 14-1273)
[6] = biological target: BV2589 (recombinant CoV S glycoprotein, BQ.1.1) (SARS-CoV-2, UniProt P0DTC2 14-1273); assay: hACE2 receptor inhibition ELISA on coated rS; competitor hACE2-His
[7] = biological target: BV2542 (recombinant CoV S glycoprotein, BA.2.12.1) (SARS-CoV-2, UniProt P0DTC2 14-1273); assay: as above
[8] = biological target: BV2523 (recombinant CoV S glycoprotein, BA.2) (SARS-CoV-2, UniProt P0DTC2 14-1273); assay: as above
[9] = biological target: BV2561 (recombinant CoV S glycoprotein, BA.2.75) (SARS-CoV-2, UniProt P0DTC2 14-1273); assay: as above
[10] = biological target: BV2540 (recombinant CoV S glycoprotein, BA.5) (SARS-CoV-2, UniProt P0DTC2 14-1273); assay: as above
[11] = biological target: BV2509 (recombinant CoV S glycoprotein, BA.1) (SARS-CoV-2, UniProt P0DTC2 14-1273); assay: as above
[12] = biological target: T3, BV2541 (recombinant CoV S glycoprotein, …); assay: as above; remark: listed apart in the source
[13] = biological target: BV2562 (recombinant CoV S glycoprotein, BA.4.6) (SARS-CoV-2, UniProt P0DTC2 14-1273); assay: as above
[14] = biological target: T1, BV2465 (recombinant CoV S glycoprotein, …); assay: BLI, antibody on anti-mouse Fc biosensor, rS analyte
[15] = biological target: T4, BV2425 (recombinant CoV S glycoprotein, Alpha) (SARS-CoV-2, UniProt P0DTC2 14-1273); assay: as above
[16] = biological target: T5, BV2443 (recombinant CoV S glycoprotein, Gamma) (SARS-CoV-2, UniProt P0DTC2 14-1273); assay: as above
[17] = biological target: T2, BV2373 (recombinant CoV S glycoprotein, …); assay: as above
[18] = biological target: T1, BV2465 (recombinant CoV S glycoprotein, …); assay: ELISA, plate coated with rS, serial dilution of the mAb, anti-mouse HRP, A450
[19] = biological target: T4, BV2425 (recombinant CoV S glycoprotein, …); assay: as above
[20] = biological target: T5, BV2443 (recombinant CoV S glycoprotein, …); assay: as above
[21] = biological target: BV2438 (recombinant CoV S glycoprotein, Beta) (SARS-CoV-2, UniProt P0DTC2 14-1273); assay: as above

B1: 199.9 (antibody, V domains shown)
VH: LVQLQQPGAELVKPGASVKLSCKASGYTFTSYFMYWVRQRPGQGLEWIGEINPSNGGNDFNEKFKSKATLTVDKSSSTAYMQLSSLTSEDSAVYYCTRSGDYGYDGFAYWGQGTLVTVSA
VL: NIVLTQSPASLAVSLGQRATISCRASESVDTYGNSFMHWYQQKPGQPPKLLIYLASNLESGVPARFSGSGSRTDFTLTIDPVEADDAATYYCQQNNEDPLTFGAGTKLELK
- IC50 [1]: > 3 µg/mL
- IC50 [2]: > 3 µg/mL
- IC50 [3]: 0.038 µg/mL
- EC50 [4]: 0.016 µg/mL

B2: 239.12 (antibody, V domains shown)
VH: EVKLEESGPVLVKPSQSLSLTCTVTGYSITSDYAWNWIRQFPGNKLEWMGYISNSAGTSYNPSLKSRISITRDTSKNQFFLQLNSVTTEDTATYYCASGGWSSYYAMDYWGQGTSVTVSS
VL: DIQMTQSPASLSASVGETVTITCGASENIYGALNWYQRKQGKSPQLLIYGATNLADGMSSRFSGSGSGRQYSLKISSLHPDDVATYYCQNVLSTPYTFGGGTKLEIKR
- EC50 [5]: 0.0199 µg/mL
- IC50 [6]: > 3 µg/mL
- IC50 [7]: > 3 µg/mL
- IC50 [8]: > 3 µg/mL
- IC50 [9]: > 5 µg/mL
- IC50 [10]: > 5 µg/mL
- IC50 [11]: > 3 µg/mL
- IC50 [12]: > 3 µg/mL
- IC50 [13]: > 5 µg/mL
- Kd [14]: 3.45 pM
- Kd [15]: 2.26 pM
- koff [15]: 1.62e-07 s⁻¹
- kon [15]: 72800 M⁻¹ s⁻¹
- Kd [16]: 4.31 pM
- koff [16]: 1.25e-07 s⁻¹
- kon [16]: 29400 M⁻¹ s⁻¹
- Kd [17]: 3.81 pM
- koff [17]: 1.79e-07 s⁻¹
- kon [17]: 52900 M⁻¹ s⁻¹
- EC50 [18]: 0.025 µg/mL
- EC50 [19]: ~5 µg/mL
- EC50 [20]: ~5 µg/mL
- EC50 [21]: > 5 µg/mL

— patent US20250066456A1 (NOVAVAX, published 2025)
